Measurements: IntAct's records for PubMed 29039417

B1: BBSome complex member BBS1 (Homo sapiens), Q8NFJ9 (parent)
chain: MAAASSSDSDACGAESNEANSKWLDAHYDPMANIHTFSACLALADLHGDGEYKLVVGDLGPGGQQPRLKVLKGPLVMTESPLPALPAAAATFLMEQHEPRTPALALASGPCVYVYKNLRPYFKFSLPQLPPNPLEQDLWNQAKEDRIDPLTLKEMLESIRETAEEPLSIQSLRFLQLELSEMEAFVNQHKSNSIKRQTVITTMTTLKKNLADEDAVSCLVLGTENKELLVLDPEAFTILAKMSLPSVPVFLEVSGQFDVEFRLAAACRNGNIYILRRDSKHPKYCIELSAQPVGLIRVHKVLVVGSTQDSLHGFTHKGKKLWTVQMPAAILTMNLLEQHSRGLQAVMAGLANGEVRIYRDKALLNVIHTPDAVTSLCFGRYGREDNTLIMTTRGGGLIIKILKRTAVFVEGGSEVGPPPAQAMKLNVPRKTRLYVDQTLREREAGTAMHRAFQTDLYLLRLRAARAYLQALESSLSPLSTTAREPLKLHAVVQGLGPTFKLTLHLQNTSTTRPVLGLLVCFLYNEALYSLPRAFFKVPLLVPGLNYPLETFVESLSNKGISDIIKVLVLREGQSAPLLSAHVNMPGSEGLAAA
partner: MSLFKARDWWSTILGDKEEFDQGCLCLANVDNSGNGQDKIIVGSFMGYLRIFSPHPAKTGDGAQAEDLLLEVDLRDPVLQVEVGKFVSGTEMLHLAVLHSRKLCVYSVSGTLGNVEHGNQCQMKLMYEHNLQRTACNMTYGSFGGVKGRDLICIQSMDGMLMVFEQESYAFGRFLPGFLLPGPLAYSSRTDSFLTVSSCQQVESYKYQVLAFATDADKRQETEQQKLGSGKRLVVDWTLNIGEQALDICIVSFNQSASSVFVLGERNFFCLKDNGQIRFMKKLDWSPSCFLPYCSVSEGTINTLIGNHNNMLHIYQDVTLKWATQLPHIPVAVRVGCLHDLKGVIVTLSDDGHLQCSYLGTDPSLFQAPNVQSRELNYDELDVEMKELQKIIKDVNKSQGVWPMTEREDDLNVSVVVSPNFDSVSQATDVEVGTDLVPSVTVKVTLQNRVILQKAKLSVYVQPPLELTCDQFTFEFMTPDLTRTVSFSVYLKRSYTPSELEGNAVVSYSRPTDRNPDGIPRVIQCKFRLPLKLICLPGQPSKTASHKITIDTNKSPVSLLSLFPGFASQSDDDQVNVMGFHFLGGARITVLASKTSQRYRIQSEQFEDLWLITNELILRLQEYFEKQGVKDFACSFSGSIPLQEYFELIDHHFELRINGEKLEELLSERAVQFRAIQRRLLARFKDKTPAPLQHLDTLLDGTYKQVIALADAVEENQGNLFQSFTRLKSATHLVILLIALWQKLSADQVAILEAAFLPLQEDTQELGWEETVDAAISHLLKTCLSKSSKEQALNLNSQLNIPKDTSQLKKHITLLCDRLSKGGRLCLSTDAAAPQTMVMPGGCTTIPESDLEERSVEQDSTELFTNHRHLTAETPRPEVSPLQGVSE

Variants of: B1
Settings: with pthb1_human BBS9, Q3SYG4

Effect of a mutation on the interaction, with no effect:
MAAASSSDSDACGAESNEANSKWLDAHYDPMANIHTFSACLALADLHGDGEYKLVVGDLGPGGQQPRLKVLKGPLVMTESPLPALPAAAATFLMEQHEPRTPALALASGPCVYVYKNLRPYFKFSLPQLPPNPLEQDLWNQAKEDRIDPLTLKEMLESIRETAEEPLSIQSLRFLQLELSEMEAFVNQHKSNSIKRQTVITTMTTLKKNLADEDAVSCLVLGTENKELLVLDPEAFTILAKMSLPSVPVFLEVSGQFDVEFRLAAACRNGNIYILRRDSKHPKYCIELSAQPVGLIRVHKVLVVGSTQDSLHGFTHKGKKLWTVQMPAAILTMNLLEQHSRGLQAVMAGLANGEVRIYRDKALLNVIHTPDAVTSLCFGRYGREDNTLIMTTRGGGLIIKILKRTAVFVEGGSEVGPPPAQAMKLNVPRKTRLYVDQTLREREAGTAMHRAFQTDKYLLRLRAARAYLQALESSLSPLSTTAREPLKLHAVVQGLGPTFKLTLHLQNTSTTRPVLGLLVCFLYNEALYSLPRAFFKVPLLVPGLNYPLETFVESLSNKGISDIIKVLVLREGQSAPLLSAHVNMPGSEGLAAA [L456K]
MAAASSSDSDACGAESNEANSKWLDAHYDPMANIHTFSACLALADLHGDGEYKLVVGDLGPGGQQPRLKVLKGPLVMTESPLPALPAAAATFLMEQHEPRTPALALASGPCVYVYKNLRPYFKFSLPQLPPNPLEQDLWNQAKEDRIDPLTLKEMLESIRETAEEPLSIQSLRFLQLELSEMEAFVNQHKSNSIKRQTVITTMTTLKKNLADEDAVSCLVLGTENKELLVLDPEAFTILAKMSLPSVPVFLEVSGQFDVEFRLAAACRNGNIYILRRDSKHPKYCIELSAQPVGLIRVHKVLVVGSTQDSLHGFTHKGKKLWTVQMPAAILTMNLLEQHSRGLQAVMAGLANGEVRIYRDKALLNVIHTPDAVTSLCFGRYGREDNTLIMTTRGGGLIIKILKRTAVFVEGGSEVGPPPAQAMKLNVPRKTRLYVDQTLREREAGTAMHRAFQTDEYLLRLRAARAYLQALESSLSPLSTTAREPLKLHAVVQGLGPTFKLTLHLQNTSTTRPVLGLLVCFLYNEALYSLPRAFFKVPLLVPGLNYPLETFVESLSNKGISDIIKVLVLREGQSAPLLSAHVNMPGSEGLAAA [L456E]
MAAASSSDSDACGAESNEANSKWLDAHYDPMANIHTFSACLALADLHGDGEYKLVVGDLGPGGQQPRLKVLKGPLVMTESPLPALPAAAATFLMEQHEPRTPALALASGPCVYVYKNLRPYFKFSLPQLPPNPLEQDLWNQAKEDRIDPLTLKEMLESIRETAEEPLSIQSLRFLQLELSEMEAFVNQHKSNSIKRQTVITTMTTLKKNLADEDAVSCLVLGTENKELLVLDPEAFTILAKMSLPSVPVFLEVSGQFDVEFRLAAACRNGNIYILRRDSKHPKYCIELSAQPVGLIRVHKVLVVGSTQDSLHGFTHKGKKLWTVQMPAAILTMNLLEQHSRGLQAVMAGLANGEVRIYRDKALLNVIHTPDAVTSLCFGRYGREDNTLIMTTRGGGLIIKILKRTAVFVEGGSEVGPPPAQAMKLNVPRKTRLYVDQTLREREAGTAMHRAFQTDAYLLRLRAARAYLQALESSLSPLSTTAREPLKLHAVVQGLGPTFKLTLHLQNTSTTRPVLGLLVCFLYNEALYSLPRAFFKVPLLVPGLNYPLETFVESLSNKGISDIIKVLVLREGQSAPLLSAHVNMPGSEGLAAA [L456A]
MAAASSSDSDACGAESNEANSKWLDAHYDPMANIHTFSACLALADLHGDGEYKLVVGDLGPGGQQPRLKVLKGPLVMTESPLPALPAAAATFLMEQHEPRTPALALASGPCVYVYKNLRPYFKFSLPQLPPNPLEQDLWNQAKEDRIDPLTLKEMLESIRETAEEPLSIQSLRFLQLELSEMEAFVNQHKSNSIKRQTVITTMTTLKKNLADEDAVSCLVLGTENKELLVLDPEAFTILAKMSLPSVPVFLEVSGQFDVEFRLAAACRNGNIYILRRDSKHPKYCIELSAQPVGLIRVHKVLVVGSTQDSLHGFTHKGKKLWTVQMPAAILTMNLLEQHSRGLQAVMAGLANGEVRIYRDKALLNVIHTPDAVTSLCFGRYGREDNTLIMTTRGGGLIIKILKRTAVFVEGGSEVGPPPAQAMKLNVPRKTRLYVDQTLREREAGTAMHRAFQTKLYLLRLRAARAYLQALESSLSPLSTTAREPLKLHAVVQGLGPTFKLTLHLQNTSTTRPVLGLLVCFLYNEALYSLPRAFFKVPLLVPGLNYPLETFVESLSNKGISDIIKVLVLREGQSAPLLSAHVNMPGSEGLAAA [D455K]
MAAASSSDSDACGAESNEANSKWLDAHYDPMANIHTFSACLALADLHGDGEYKLVVGDLGPGGQQPRLKVLKGPLVMTESPLPALPAAAATFLMEQHEPRTPALALASGPCVYVYKNLRPYFKFSLPQLPPNPLEQDLWNQAKEDRIDPLTLKEMLESIRETAEEPLSIQSLRFLQLELSEMEAFVNQHKSNSIKRQTVITTMTTLKKNLADEDAVSCLVLGTENKELLVLDPEAFTILAKMSLPSVPVFLEVSGQFDVEFRLAAACRNGNIYILRRDSKHPKYCIELSAQPVGLIRVHKVLVVGSTQDSLHGFTHKGKKLWTVQMPAAILTMNLLEQHSRGLQAVMAGLANGEVRIYRDKALLNVIHTPDAVTSLCFGRYGREDNTLIMTTRGGGLIIKILKRTAVFVEGGSEVGPPPAQAMKLNVPRKTRLYVDQTLREREAGTAMHRAFQTDLALLRLRAARAYLQALESSLSPLSTTAREPLKLHAVVQGLGPTFKLTLHLQNTSTTRPVLGLLVCFLYNEALYSLPRAFFKVPLLVPGLNYPLETFVESLSNKGISDIIKVLVLREGQSAPLLSAHVNMPGSEGLAAA [Y457A]
